According to PMC5727232, “Structural basis for genome wide recognition of 5-bp GC motifs by SMAD transcription factors”:

Legend:
[1] = target: T1, Smad4 MH1 domain (Homo sapiens, UniProt Q13485 10-140); experiment: EMSA; EMSA: 20 mM Tris pH 7.2, 80 mM NaCl, 2 mM DTT, 7.5 nM Cy5-DNA, 30 min room temperature, gel at 20 C; ITC: Tris pH 7.0, 20 C; conditions: protein: recombinant; tags: N-terminal His, cleaved (TEV or 3C); label: 5' Cy5; blunt
[2] = target: T1, Smad4 MH1 domain; experiment: X-ray crystallography (2.05 A); Zn2+; EMSA: 20 mM Tris pH 7.2, 80 mM NaCl, 2 mM DTT, 7.5 nM Cy5-DNA, 30 min room temperature, gel at 20 C; ITC: Tris pH 7.0, 20 C; conditions: protein: recombinant; tags: N-terminal His, cleaved (TEV or 3C); blunt, self-complementary
[3] = target: T1, Smad4 MH1 domain; experiment: ITC; EMSA: 20 mM Tris pH 7.2, 80 mM NaCl, 2 mM DTT, 7.5 nM Cy5-DNA, 30 min room temperature, gel at 20 C; ITC: Tris pH 7.0, 20 C; conditions: protein: recombinant, tags: N-terminal His, cleaved (TEV or 3C), blunt
[4] = target: T1, Smad4 MH1 domain; experiment: EMSA; no nanomolar binding; EMSA: 20 mM Tris pH 7.2, 80 mM NaCl, 2 mM DTT, 7.5 nM Cy5-DNA, 30 min room temperature, gel at 20 C; ITC: Tris pH 7.0, 20 C; conditions: protein: recombinant; tags: N-terminal His, cleaved (TEV or 3C); label: 5' Cy5; blunt
[5] = target: T2, Trichoplax Smad4 MH1 domain (Trichoplax adhaerens, UniProt B3S7S5 1-151); experiment: EMSA; EMSA: 20 mM Tris pH 7.2, 80 mM NaCl, 2 mM DTT, 7.5 nM Cy5-DNA, 30 min room temperature, gel at 20 C; ITC: Tris pH 7.0, 20 C; conditions: protein: recombinant; tags: N-terminal His-TEV, cleaved; label: 5' Cy5; blunt
T2 sequence: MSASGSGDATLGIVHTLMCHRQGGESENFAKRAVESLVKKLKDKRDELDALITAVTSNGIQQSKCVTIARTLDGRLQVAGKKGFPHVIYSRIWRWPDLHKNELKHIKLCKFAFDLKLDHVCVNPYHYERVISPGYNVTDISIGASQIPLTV

[6] = target: T3, Smad3 MH1 domain (Homo sapiens, UniProt P84022 1-141); experiment: EMSA; text says GC1 oligonucleotide; EMSA: 20 mM Tris pH 7.2, 80 mM NaCl, 2 mM DTT, 7.5 nM Cy5-DNA, 30 min room temperature, gel at 20 C; ITC: Tris pH 7.0, 20 C; conditions: protein: recombinant; tags: N-terminal His-TEV, cleaved; label: 5' Cy5; blunt
T3 sequence (P84022 1-141): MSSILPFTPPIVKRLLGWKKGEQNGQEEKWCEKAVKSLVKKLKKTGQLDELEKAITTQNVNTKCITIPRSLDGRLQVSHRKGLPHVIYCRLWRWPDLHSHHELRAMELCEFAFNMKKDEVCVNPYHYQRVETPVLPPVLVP

[7] = target: T1, Smad4 MH1 domain; experiment: X-ray crystallography (3.03 A); Zn2+; EMSA: 20 mM Tris pH 7.2, 80 mM NaCl, 2 mM DTT, 7.5 nM Cy5-DNA, 30 min room temperature, gel at 20 C; ITC: Tris pH 7.0, 20 C; conditions: protein: recombinant; tags: N-terminal His, cleaved (TEV or 3C); blunt, self-complementary
[8] = target: T1, Smad4 MH1 domain; experiment: NMR; 1 equivalent DNA; pH 6.3, 100 mM NaCl, 298 K; EMSA: 20 mM Tris pH 7.2, 80 mM NaCl, 2 mM DTT, 7.5 nM Cy5-DNA, 30 min room temperature, gel at 20 C; ITC: Tris pH 7.0, 20 C; conditions: protein: recombinant; tags: N-terminal His, cleaved (TEV or 3C); blunt
[9] = target: T1, Smad4 MH1 domain; experiment: NMR; pH 6.3, 100 mM NaCl, 298 K; EMSA: 20 mM Tris pH 7.2, 80 mM NaCl, 2 mM DTT, 7.5 nM Cy5-DNA, 30 min room temperature, gel at 20 C; ITC: Tris pH 7.0, 20 C; conditions: protein: recombinant; tags: N-terminal His, cleaved (TEV or 3C); blunt
[10] = target: T3, Smad3 MH1 domain; experiment: EMSA; EMSA: 20 mM Tris pH 7.2, 80 mM NaCl, 2 mM DTT, 7.5 nM Cy5-DNA, 30 min room temperature, gel at 20 C; ITC: Tris pH 7.0, 20 C; conditions: protein: recombinant; tags: N-terminal His-TEV, cleaved; label: 5' Cy5; blunt

T1 sequence (Q13485 10-140): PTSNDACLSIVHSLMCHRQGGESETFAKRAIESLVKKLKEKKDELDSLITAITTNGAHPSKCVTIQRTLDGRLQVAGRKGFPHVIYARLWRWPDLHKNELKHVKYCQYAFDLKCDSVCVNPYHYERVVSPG

B1: -GGCCGG- (dsDNA)
DNA 1: ATTATTGGCCGGAAAGCA
DNA 2: TGCTTTCCGGCCAATAAT
- binding result [1]: binds

B2: GGCGC-XRAY-Smad4 18mer (dsDNA)
DNA 1: ATGCGGGCGCGCCCGCAT
DNA 2: ATGCGGGCGCGCCCGCAT
- binding result [2]: binds

B3: GGCT 16mer (dsDNA)
DNA 1: TGCAGGCTAGCCTGCA
DNA 2: TGCAGGCTAGCCTGCA
- Kd ([3]; self-complementary): 250.5 ± 0.8 nM

B4: SBE / GTCT (dsDNA)
DNA 1: TGCAGTCTAGACTGCA
DNA 2: TGCAGTCTAGACTGCA
- Kd ([3]; label: 5' Cy5 in EMSA, self-complementary): 200.3 ± 0.5 nM

B5: FoxH1 site (dsDNA)
DNA 1: TCTCAATCCACAATC
DNA 2: GATTGTGGATTGAGA
- binding result [4]: no binding

B6: -GGCCGC- (dsDNA)
DNA 1: ATTAGGCCGCAAAAAAAGCA
DNA 2: TGCTTTTTTTGCGGCCTAAT
- binding result [1]: binds

B7: CAGAC (ITC) (dsDNA)
DNA 1: AGTCAGACGCT
DNA 2: AGCGTCTGACT
- Kd [3]: 270.5 ± 0.1 nM

B8: GC1 core (dsDNA)
DNA 1: TTAAGGCCGGGGCCGCGCCGGGAATT
DNA 2: AATTCCCGGCGCGGCCCCGGCCTTAA
- binding result [5]: binds
- Kd [6]: ~100 nM

B9: GGCCG-XRAY (dsDNA)
DNA 1: ACGGGCCGCGGCCCGT
DNA 2: ACGGGCCGCGGCCCGT
- binding result [7]: binds

B10: NMR GGCCGCGCC duplex (dsDNA)
DNA 1: AGGCCGCGCCGA
DNA 2: TCGGCGCGGCCT
- binding result [8]: binds

B11: NMR GGCTGCC duplex (dsDNA)
DNA 1: AGCCGGCTGCC
DNA 2: GGCAGCCGGCT
- binding result [9]: binds

B12: -GGCTGCC- (dsDNA)
DNA 1: GTAACCGGCTGCCGAATG
DNA 2: CATTCGGCAGCCGGTTAC
- binding result [10]: binds
- binding result [1]: binds

B13: GC2_14 (CCTGGGC) (dsDNA)
DNA 1: AACCTGGGCAATTA
DNA 2: TAATTGCCCAGGTT
- binding result [4]: no binding
